Reference: the MegaScale stability set (Tsuboyama et al. 2023)

B1: EHEE_rd3_0053 (parent)
chain: TYTFKVDNKDQAKKAAKWAKKLGLSFQIEKHGDTFKITVQ
B2: HHH_rd1_0493 (parent)
chain: RDEDEKEKIKEALKRGNEDKAKEIAKRANVSPEEYERLRKEAE

Variants of: B1
Experiment: folding stability dG (cDNA display proteolysis); higher = more stable
Settings: PBS, room temperature

Variant	folding stability dG
D10I	2.62 kcal/mol
D10L	2.68 kcal/mol
D10H	2.7 kcal/mol
D10S	2.71 kcal/mol
D10C	2.72 kcal/mol
D10T	2.73 kcal/mol
D10M	2.67 kcal/mol
D10R	2.8 kcal/mol
D10K	2.74 kcal/mol
D10Q	2.68 kcal/mol
D10A	2.83 kcal/mol
D10P	1.89 kcal/mol
D10F	2.75 kcal/mol
D10W	2.98 kcal/mol
D10G	2.44 kcal/mol
D10V	2.52 kcal/mol
D10Y	3.04 kcal/mol
D10E	2.73 kcal/mol
D10N	2.6 kcal/mol
W18D	0.328 kcal/mol
W18F	1.56 kcal/mol
W18H	1.22 kcal/mol
W18E	0.8 kcal/mol
W18A	1.21 kcal/mol
W18G	0.349 kcal/mol

Variant	folding stability dG
K13N	2.27 kcal/mol
K13R	2.66 kcal/mol
K13I	2.49 kcal/mol
K13Y	2.32 kcal/mol
K13Q	2.3 kcal/mol
K13P	-0.412 kcal/mol
K13S	2.11 kcal/mol
K13T	2.12 kcal/mol
K13G	1.72 kcal/mol
K13M	2.55 kcal/mol
K13F	2.23 kcal/mol
K13V	2.3 kcal/mol
K13D	2.46 kcal/mol
K13H	2.07 kcal/mol
K13A	2.31 kcal/mol
K13C	3.24 kcal/mol
K13E	2.32 kcal/mol
K13W	2.35 kcal/mol
K13L	2.46 kcal/mol
A16R	2.56 kcal/mol
A16N	1.06 kcal/mol
A16F	2.28 kcal/mol
A16D	0.642 kcal/mol
A16V	2.47 kcal/mol
A16M	2.45 kcal/mol

Variant	folding stability dG
A16G	1.84 kcal/mol
A16Y	2.45 kcal/mol
A16I	2.73 kcal/mol
A16W	2.37 kcal/mol
A16T	1.87 kcal/mol
A16K	2.41 kcal/mol
A16Q	2.16 kcal/mol
A16H	1.65 kcal/mol
A16S	1.87 kcal/mol
A16L	2.33 kcal/mol
F4E	0.316 kcal/mol
F4A	0.455 kcal/mol
F4C	3.42 kcal/mol
F4T	0.349 kcal/mol
F4V	1.2 kcal/mol
F4Y	1.69 kcal/mol
F4W	2.38 kcal/mol
F4N	-0.163 kcal/mol
F4L	1.38 kcal/mol
F4Q	0.162 kcal/mol
F4D	-0.075 kcal/mol
F4I	1.79 kcal/mol
F4S	0.126 kcal/mol
F4H	0.581 kcal/mol
F4P	0.467 kcal/mol

Variant	folding stability dG
F4M	1.23 kcal/mol
F4R	0.333 kcal/mol
F4G	0.271 kcal/mol
F4K	0.404 kcal/mol
Y2F	2.57 kcal/mol
Y2M	2.08 kcal/mol
Y2W	2.7 kcal/mol
Y2A	1.23 kcal/mol
Y2L	2.25 kcal/mol
Y2D	0.593 kcal/mol
Y2H	1.95 kcal/mol
Y2V	2.01 kcal/mol
Y2S	1.18 kcal/mol
Y2Q	1.17 kcal/mol
Y2E	0.685 kcal/mol
Y2C	3.58 kcal/mol
Y2P	0.617 kcal/mol
Y2K	1.59 kcal/mol
Y2I	2.27 kcal/mol
Y2T	1.42 kcal/mol
Y2N	0.999 kcal/mol
Y2G	0.704 kcal/mol
Y2R	1.97 kcal/mol
D7Q	2.61 kcal/mol
D7L	2.4 kcal/mol

Variant	folding stability dG
D7R	2.68 kcal/mol
D7A	2.71 kcal/mol
D7S	2.66 kcal/mol
D7N	2.62 kcal/mol
D7M	2.51 kcal/mol
D7F	2.83 kcal/mol
D7C	3.29 kcal/mol
D7I	2.27 kcal/mol
D7P	2.27 kcal/mol
D7H	2.58 kcal/mol
D7T	2.47 kcal/mol
D7V	2.33 kcal/mol
D7E	2.37 kcal/mol
D7Y	2.78 kcal/mol
D7K	2.77 kcal/mol
D7W	2.66 kcal/mol
D7G	2.45 kcal/mol
N8A	1.27 kcal/mol
N8Y	1.27 kcal/mol
N8I	1.16 kcal/mol
N8P	0.466 kcal/mol
N8R	1.86 kcal/mol
N8F	1.46 kcal/mol
N8L	1.43 kcal/mol
N8W	1.24 kcal/mol

Variant	folding stability dG
N8D	2.02 kcal/mol
N8K	1.62 kcal/mol
N8G	2.35 kcal/mol
N8Q	1.47 kcal/mol
N8T	2.78 kcal/mol
N8V	0.955 kcal/mol
N8E	1.16 kcal/mol
N8M	1.15 kcal/mol
N8H	1.73 kcal/mol
N8S	2.56 kcal/mol
A15F	3.33 kcal/mol
A15T	1.85 kcal/mol
A15V	3.15 kcal/mol
A15I	3.43 kcal/mol
A15E	0.415 kcal/mol
A15Y	3.04 kcal/mol
A15W	3.48 kcal/mol
A15P	-0.232 kcal/mol
A15K	1.25 kcal/mol
A15G	0.564 kcal/mol
A15L	2.82 kcal/mol
A15R	1.43 kcal/mol
A15N	0.377 kcal/mol
A15D	-0.785 kcal/mol
A15M	2.5 kcal/mol

Variant	folding stability dG
A15C	3.07 kcal/mol
A15Q	0.637 kcal/mol
A15S	1.26 kcal/mol
A15H	1.42 kcal/mol
Q11G	1.97 kcal/mol
Q11P	0.025 kcal/mol
Q11H	2.1 kcal/mol
Q11R	1.99 kcal/mol
Q11L	2.33 kcal/mol
Q11V	1.95 kcal/mol
Q11K	2.38 kcal/mol
Q11E	2.3 kcal/mol
Q11S	2.18 kcal/mol
Q11W	1.79 kcal/mol
Q11C	3.05 kcal/mol
Q11F	1.85 kcal/mol
Q11T	1.93 kcal/mol
Q11I	1.97 kcal/mol
Q11Y	1.74 kcal/mol
Q11N	1.72 kcal/mol
Q11M	2.36 kcal/mol
Q11A	2.65 kcal/mol
Q11D	2.39 kcal/mol
T1Y	2.64 kcal/mol
T1L	2.21 kcal/mol

Variant	folding stability dG
T1W	2.67 kcal/mol
T1K	2.46 kcal/mol
T1P	2.15 kcal/mol
T1M	2.37 kcal/mol
T1S	2.62 kcal/mol
T1N	2.17 kcal/mol
T1A	2.38 kcal/mol
T1G	2.42 kcal/mol
T1V	2.43 kcal/mol
T1F	2.42 kcal/mol
T1D	1.93 kcal/mol
T1I	2.51 kcal/mol
T1H	2.3 kcal/mol
T1C	3.57 kcal/mol
T1E	2.25 kcal/mol
T1R	2.45 kcal/mol
T1Q	2.34 kcal/mol
K14R	2.62 kcal/mol
K14E	1.95 kcal/mol
K14F	2.14 kcal/mol
K14P	-0.126 kcal/mol
K14L	2.33 kcal/mol
K14V	2.08 kcal/mol
K14G	1.53 kcal/mol
K14H	2.06 kcal/mol

Variant	folding stability dG
K14I	2.21 kcal/mol
K14D	1.56 kcal/mol
K14T	1.89 kcal/mol
K14W	2.4 kcal/mol
K14N	2 kcal/mol
K14Q	2.24 kcal/mol
K14S	2.04 kcal/mol
K14Y	2.17 kcal/mol
K14A	2.62 kcal/mol
K14M	2.34 kcal/mol
T3I	2.43 kcal/mol
T3E	2.15 kcal/mol
T3Q	1.95 kcal/mol
T3N	1.43 kcal/mol
T3D	1.34 kcal/mol
T3K	1.46 kcal/mol
T3G	0.986 kcal/mol
T3S	2.34 kcal/mol
T3R	1.6 kcal/mol
T3H	2.1 kcal/mol
T3L	1.39 kcal/mol
T3W	2.67 kcal/mol
T3Y	2.27 kcal/mol
T3C	2.98 kcal/mol
T3F	2.2 kcal/mol

Variant	folding stability dG
T3A	1.79 kcal/mol
T3M	1.99 kcal/mol
T3V	2.49 kcal/mol
T3P	0.945 kcal/mol
K5W	3.77 kcal/mol
K5T	3.28 kcal/mol
K5P	1.7 kcal/mol
K5E	2.93 kcal/mol
K5Q	2.9 kcal/mol
K5S	2.96 kcal/mol
K5Y	3.89 kcal/mol
K5I	3.47 kcal/mol
K5A	2.54 kcal/mol
K5N	2.79 kcal/mol
K5H	3.07 kcal/mol
K5V	3.31 kcal/mol
K5R	2.22 kcal/mol
K5M	3.24 kcal/mol
K5L	3.2 kcal/mol
K5F	3.77 kcal/mol
K5D	2.34 kcal/mol
K5G	1.89 kcal/mol
A12H	0.275 kcal/mol
A12S	1.17 kcal/mol
A12K	1.26 kcal/mol

Variant	folding stability dG
A12C	3.23 kcal/mol
A12I	1.97 kcal/mol
A12N	-0.078 kcal/mol
A12F	1.36 kcal/mol
A12T	1.06 kcal/mol
A12R	1.29 kcal/mol
A12D	-0.537 kcal/mol
A12P	-0.057 kcal/mol
A12E	0.263 kcal/mol
A12M	2.25 kcal/mol
A12Q	0.843 kcal/mol
A12W	1.29 kcal/mol
A12V	2.33 kcal/mol
A12G	1.05 kcal/mol
A12Y	1.31 kcal/mol
A12L	2.42 kcal/mol
K17C	2.6 kcal/mol
K17M	2.52 kcal/mol
K17G	1.9 kcal/mol
K17N	2.23 kcal/mol
K17A	2.61 kcal/mol
K17D	2.16 kcal/mol
K17P	-0.379 kcal/mol
K17V	2.23 kcal/mol
K17S	2.33 kcal/mol

Variant	folding stability dG
K17L	2.5 kcal/mol
K17E	2.36 kcal/mol
K17T	2.17 kcal/mol
K17W	2.43 kcal/mol
K17F	2.26 kcal/mol
K17Q	2.57 kcal/mol
K17H	2.21 kcal/mol
K17Y	2.34 kcal/mol
K17I	2.53 kcal/mol
K17R	2.63 kcal/mol
V6M	1.68 kcal/mol
V6W	1.28 kcal/mol
V6T	2.1 kcal/mol
V6Q	0.045 kcal/mol
V6I	1.89 kcal/mol
V6K	0.315 kcal/mol
V6H	0.343 kcal/mol
V6N	-0.311 kcal/mol
V6F	2.32 kcal/mol
V6P	0.243 kcal/mol
V6L	2.32 kcal/mol
V6R	0.551 kcal/mol
V6G	0.437 kcal/mol
V6D	-0.058 kcal/mol
V6Y	1.92 kcal/mol

Variant	folding stability dG
V6E	0.257 kcal/mol
V6A	1.62 kcal/mol
V6S	1.03 kcal/mol
K9I	2.87 kcal/mol
K9T	2.02 kcal/mol
K9R	2.46 kcal/mol
K9W	3.2 kcal/mol
K9G	1.9 kcal/mol
K9H	2.25 kcal/mol
K9Y	2.86 kcal/mol
K9P	2.31 kcal/mol
K9L	2.9 kcal/mol
K9D	1.91 kcal/mol
K9V	2.57 kcal/mol
K9Q	2.26 kcal/mol
K9E	2.65 kcal/mol
K9S	2.14 kcal/mol
K9A	2.62 kcal/mol
K9F	2.74 kcal/mol
K9N	1.9 kcal/mol
K9M	2.74 kcal/mol

Variants of: B2
Experiment: as above
Settings: PBS, room temperature

Variant	folding stability dG
E43W	3.31 kcal/mol
E43S	2.62 kcal/mol
E43I	3.07 kcal/mol
E43Q	3.02 kcal/mol
E43Y	3.29 kcal/mol
E43K	2.64 kcal/mol
E43M	3.31 kcal/mol
E43N	2.59 kcal/mol
E43L	3.33 kcal/mol
E43T	2.65 kcal/mol
E43V	2.79 kcal/mol
E43P	1.3 kcal/mol
E43R	2.72 kcal/mol
